± gives the standard deviation of the averaged measurements.
B1: library; a variant is named by its letters at N, in order (parent)
chain: GCUGUCACCGGUGUAUUACCCUAGUGGUCGACCGGUCUGAUGAGUCUNNNNNNAGACGAAACAGC

Assays:
[1] = variants of: B1; assay: normalized RNA/DNA level with ligand (relative to sTRSVctl = 100) (log10 (% of sTRSVctl)); ligand: hypoxanthine (xanthine aptamer); higher = less ribozyme self-cleavage, higher mRNA level; settings: ligand concentration (+) RNA-Seq: 5 mM, HEK293T, reporter: mCherry (pCS4076), ligand present: yes
In short: (§1)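 For each 6-well well, 4 µg of library plasmid encoding mCherry-linked ribozyme switches, or eGFP-linked ones in some ligand experiments, was transfected into HEK293T. Any ligand was added 1 h before transfection, and RNA was extracted with EDTA 72 h after it, then reverse-transcribed, amplified, barcoded and sequenced. RNA level was obtained by dividing RNA reads by DNA reads, normalizing to a spiked-in non-cleaving sequence or to the top sequences, then scaling and log-transforming. The top set was 25 sequences, scaling was ×100 with log10, and ≥100 DNA reads were required.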

[2] = variants of: B1; assay: normalized RNA/DNA level without ligand (relative to sTRSVctl = 100) (log10 (% of sTRSVctl)); ligand: hypoxanthine (xanthine aptamer); higher = less ribozyme self-cleavage, higher mRNA level; settings: HEK293T, reporter: mCherry (pCS4076), ligand present: no
In short: as §1

Row | Variant | normalized RNA/DNA level with ligand (log10) [1] | normalized RNA/DNA level without ligand (log10) [2]
1 | AUUUAU | 1.9 ± 0.039 | 1.907 ± 0.019
2 | AUUUAC | 1.927 ± 0.011 | 1.847 ± 0.0068
3 | AUUUAG | 1.85 ± 0.033 | 1.55 ± 0.053
4 | UUUUUG | 1.98 ± 0.025 | 1.83 ± 0.064
5 | UUUUUC | 2.02 ± 0.043 | 1.99 ± 0.02
6 | UUUUUU | 1.973 ± 0.01 | 1.973 ± 0.017
7 | UUUUUA | 1.99 ± 0.064 | 1.93 ± 0.045
8 | AUUUCU | 1.96 ± 0.052 | 1.917 ± 0.018
9 | AUUUCA | 1.87 ± 0.04 | 1.829 ± 0.017
10 | AUUUCC | 1.9621 ± 0.0014 | 1.878 ± 0.0067
11 | AUUUCG | 1.901 ± 0.0068 | 1.568 ± 0.015
12 | CUUGUG | 1.96 ± 0.056 | 1.883 ± 0.015
13 | CUUGUU | 1.909 ± 0.0024 | 1.9 ± 0.022
14 | CUUGUA | 1.94 ± 0.062 | 1.83 ± 0.045
15 | CUUGUC | 2 ± 0.037 | 1.98 ± 0.04
16 | AUUGUA | 1.89 ± 0.021 | 1.78 ± 0.022
17 | AUUGUU | 1.9265 ± 0.0005 | 1.8319 ± 0.00072
18 | AUUGUC | 1.952 ± 0.016 | 1.969 ± 0.015
19 | GUUGCG | 1.87 ± 0.041 | 1.58 ± 0.072
20 | GUUGCC | 1.9665 ± 0.0019 | 1.9 ± 0.033
21 | GUUGCU | 1.97 ± 0.069 | 1.862 ± 0.0076

Row | Variant | normalized RNA/DNA level with ligand (log10) [1] | normalized RNA/DNA level without ligand (log10) [2]
22 | GUUGAC | 1.917 ± 0.015 | 1.72 ± 0.057
23 | GUUUAC | 1.96 ± 0.04 | 1.88 ± 0.028
24 | GUUUAU | 1.96 ± 0.05 | 1.83 ± 0.042
25 | AUUGCU | 1.92 ± 0.048 | 1.88 ± 0.048
26 | AUUGCC | 1.95 ± 0.021 | 1.85 ± 0.021
27 | AUUGCA | 1.9 ± 0.0078 | 1.8 ± 0.026
28 | AUUGGC | 1.94 ± 0.03 | 1.836 ± 0.0094
29 | CUUUGC | 1.92 ± 0.026 | 1.88 ± 0.06
30 | CUUUGA | 1.97 ± 0.035 | 1.88 ± 0.0019
31 | CUUUGU | 1.93 ± 0.021 | 1.975 ± 0.013
32 | CUUUGG | 1.88 ± 0.032 | 1.58 ± 0.043
33 | CUUGCG | 1.937 ± 0.0067 | 1.853 ± 0.004
34 | CUUGCC | 1.9562 ± 0.0012 | 1.884 ± 0.015
35 | UUUGGG | 1.92 ± 0.025 | 1.71 ± 0.035
36 | UUUGGA | 1.93 ± 0.027 | 1.67 ± 0.026
37 | UUUGGU | 1.976 ± 0.0094 | 1.8 ± 0.027
38 | UUUGGC | 1.99 ± 0.059 | 1.92 ± 0.053
39 | UUUGUA | 1.93 ± 0.024 | 1.87 ± 0.089
40 | UUUGUC | 2.0103 ± 0.0014 | 1.99 ± 0.036
41 | UUUGUU | 1.952 ± 0.018 | 1.87 ± 0.027
42 | CUUUCG | 1.97 ± 0.064 | 1.903 ± 0.014

Row | Variant | normalized RNA/DNA level with ligand (log10) [1] | normalized RNA/DNA level without ligand (log10) [2]
43 | CUUUCC | 1.91 ± 0.05 | 1.96 ± 0.039
44 | CUUUCU | 1.93 ± 0.048 | 1.88 ± 0.038
45 | UUUUCA | 1.94 ± 0.056 | 1.901 ± 0.012
46 | UUUUCG | 1.923 ± 0.0085 | 1.79 ± 0.053
47 | UUUUCU | 1.99 ± 0.052 | 1.9 ± 0.02
48 | AUUUUA | 1.9 ± 0.029 | 1.83 ± 0.037
49 | AUUUUC | 1.97 ± 0.056 | 1.925 ± 0.003
50 | UUUGAU | 1.9 ± 0.052 | 1.7965 ± 0.0012
51 | UUUGAC | 1.927 ± 0.0075 | 1.84 ± 0.037
52 | CUUUUU | 1.95 ± 0.058 | 1.806 ± 0.012
53 | CUUUUC | 1.95 ± 0.06 | 1.92 ± 0.077
54 | CUUUUG | 1.95 ± 0.042 | 1.89 ± 0.078
55 | AUUUGG | 1.81 ± 0.03 | 1.39 ± 0.12
56 | UUUUAC | 1.93 ± 0.031 | 1.83 ± 0.031
57 | UUUUAA | 1.931 ± 0.0049 | 1.85 ± 0.056
58 | UUUUAG | 1.9 ± 0.03 | 1.76 ± 0.055
59 | GUUUGA | 1.97 ± 0.0084 | 1.75 ± 0.032
60 | GUUUGU | 1.95 ± 0.03 | 1.885 ± 0.01
61 | GUUUGC | 1.922 ± 0.016 | 1.61 ± 0.062
62 | GUUGUC | 1.943 ± 0.0065 | 1.9 ± 0.052
63 | UUUGCA | 1.94 ± 0.039 | 1.89 ± 0.033

Row | Variant | normalized RNA/DNA level with ligand (log10) [1] | normalized RNA/DNA level without ligand (log10) [2]
64 | UUUGCC | 1.92 ± 0.034 | 1.9514 ± 0.00098
65 | UUUGCG | 1.91 ± 0.11 | 1.778 ± 0.0053
66 | UUUGCU | 1.95 ± 0.023 | 1.95 ± 0.022
67 | GUUUUA | 1.93 ± 0.025 | 1.865 ± 0.0019
68 | GUUGGC | 1.9 ± 0.029 | 1.51 ± 0.025
69 | GUUGGA | 1.913 ± 0.0093 | 1.67 ± 0.042
70 | GUUGGU | 1.9283 ± 0.00055 | 1.78 ± 0.021
71 | CUUGAG | 1.87 ± 0.03 | 1.72 ± 0.068
72 | UUUUGU | 1.94 ± 0.037 | 1.842 ± 0.011
73 | UUUUGC | 1.94 ± 0.048 | 1.889 ± 0.0056
74 | UUUUGG | 1.898 ± 0.0019 | 1.738 ± 0.007
75 | CUUGGG | 1.866 ± 0.013 | 1.587 ± 0.013
76 | CUUGGU | 1.98 ± 0.051 | 1.95 ± 0.04
77 | CUUGGC | 1.95 ± 0.069 | 1.9 ± 0.089
78 | GUUUCA | 1.98 ± 0.024 | 1.9949 ± 0.0014
79 | GUUUCU | 2 ± 0.063 | 2.02 ± 0.027
80 | GUUUCG | 1.9698 ± 0.0015 | 2.01 ± 0.098
81 | CUUUAC | 1.92 ± 0.073 | 1.81 ± 0.052
82 | CUUUAA | 1.92 ± 0.049 | 1.78 ± 0.054

Source: the supplement of paper PMC6757056
